B1: Twister Ribozyme (parent)
chain: AACACUGCCAAUGCCGGUCCCAAGCCCGGAUAAAAGUGGAGGGGGCGG

In the series the parent is B1. Kind of series: self-cleavage, relative activity (ratio to wild type); higher = more cleavage; co-transcriptional.
Take C26U G38U: the self-cleavage turned out to be 0.201.
A1U G24U: the self-cleavage amounted to 0.0764.
On to C26U C46G, for which the self-cleavage is 0.307.
On to U6C A33U, for which the self-cleavage was 0.319.
On to U6C A33C, for which the self-cleavage turned out to be 0.12.
Turning to A2C C15G, the self-cleavage was found to be 0.0398.
The same measure for C9G C25A: 0.0478; for C9G C25U: 0.194.
For G42C G43C, the self-cleavage worked out at 0.365.
Take A23C G44U: the self-cleavage came to 0.195.
As for G29C C46G, the self-cleavage amounted to 0.586.
On to G29C C46U, for which the self-cleavage stood at 0.769.
As to G16U A32U, the self-cleavage came to 1.
Regarding C20U C46U, the self-cleavage amounted to 0.969.
Regarding C20G G38U, the self-cleavage worked out at 0.0717.
Consider A23G G48A, for which the self-cleavage was determined as 0.327.
The result for A1G G17U reads 0.221.
The result for A1G G42U reads 0.187.
The same measure for U6A C26G: 0.132.
As for C3U C46U, the self-cleavage was determined as 0.503.
In the case of A35U G44U, the self-cleavage is 0.92.
As for C25G C26G, the self-cleavage turned out to be 0.0826.
In the case of A1G C46A, the self-cleavage was 0.412.
With A1G C26G, the self-cleavage came to 0.334.
As for C15U C19G, the self-cleavage turned out to be 0.251.
A32C G48U: the self-cleavage stood at 0.893.
The same measure for G28A G42C: 0.272.
Turning to U31A G45C, the self-cleavage was determined as 0.347.
The same measure for G16U U18A: 0.605.
Consider G17A C26G, for which the self-cleavage was 0.442.
Regarding C46G, the self-cleavage came to 0.951.
Regarding A22U, the self-cleavage came to 0.879.
On to U6C G13C, for which the self-cleavage amounted to 0.107.
Regarding G16A C21G, the self-cleavage stood at 0.0789.
With A2G G17U, the self-cleavage amounted to 0.0694.
The result for A34G G44U reads 0.722.
As to A34G A35G, the self-cleavage stood at 0.526.
With G7U A32U, the self-cleavage was determined as 0.101.
Take C9U U31G: the self-cleavage stood at 0.69.
For the variant A32U A34G, the self-cleavage amounted to 0.869.
The same measure for C27G A32C: 0.137.
The same measure for U18G G41C: 0.0434; for A22U C26U: 0.103.
With C8U G45U, the self-cleavage was found to be 0.313.
The same measure for U31C G47C: 0.745; for G36A G41U: 0.131; for G17C C26U: 0.17.
For C15A G28A, the self-cleavage turned out to be 0.865.
Turning to G13A G28A, the self-cleavage was 0.579.
With A2C C25G, the self-cleavage stood at 0.0416.
The result for U6G G42U reads 0.0829; that for G16A G41U, 0.396.
Take U18A G48A: the self-cleavage came to 0.279.
Take U18C A32U: the self-cleavage came to 0.464.
The result for C21U C25G reads 0.0992; that for C3U C9G, 0.12.
On to G45C, for which the self-cleavage was 0.645.
Regarding C8G C9U, the self-cleavage is 0.0635.
On to A11U C15U, for which the self-cleavage is 1.
Consider U12G G24C, for which the self-cleavage worked out at 0.0924.
For the variant A33C U37C, the self-cleavage was 0.354.
Regarding U12C A34G, the self-cleavage was found to be 0.821.
As for C8U U18A, the self-cleavage was 0.0657.
Turning to G7C A32G, the self-cleavage was 0.105.
With G38U G47U, the self-cleavage stood at 0.813.
In the case of A11G C19U, the self-cleavage came to 0.792.
In the case of G24U G36C, the self-cleavage is 0.0879.
Turning to G16U, the self-cleavage was 1.07.
The same measure for C27U A32C: 0.755; for U6G G39U: 0.105.
For A23U G47C, the self-cleavage is 0.213.
With A4U G7C, the self-cleavage was 0.0628.
In the case of C9A G45A, the self-cleavage was found to be 0.41.
The same measure for C20A A34U: 0.0698; for C9A G43U: 0.149.
On to C21G A33U, for which the self-cleavage was 0.0662.
As for A10U C46U, the self-cleavage is 0.836.
As to C5A U31A, the self-cleavage is 0.438.
Regarding C25A G47C, the self-cleavage stood at 0.0869.
The result for A22U A30U reads 0.999; that for U31G A34C, 0.477; that for A11C A22C, 0.929.
As to G28C G45A, the self-cleavage came out at 0.552.
As to A4C C8A, the self-cleavage came out at 0.119.
Regarding C19A A35U, the self-cleavage is 0.29.
Regarding C8U G17C, the self-cleavage is 0.0682.
Take C20A G43U: the self-cleavage stood at 0.105.
Consider C20G G44A, for which the self-cleavage was 0.18.
G24A G41U: the self-cleavage is 0.082.
For G7A C15G, the self-cleavage came out at 0.0625.
Take A4C C20A: the self-cleavage turned out to be 0.0653.
The same measure for U18C C27A: 0.0979; for C14A A22G: 0.407; for G39C G42U: 0.144.
In the case of A2U G41C, the self-cleavage amounted to 0.175.
As to C8G U37A, the self-cleavage is 0.115.
As for C19A G45C, the self-cleavage turned out to be 0.233.
On to G41U G44C, for which the self-cleavage turned out to be 0.218.
For the variant G24A G29C, the self-cleavage turned out to be 0.0767.
The result for C5A G29C reads 0.279; that for C14A G38A, 0.874; that for G17U A34C, 0.0829.
In the case of C19U A34G, the self-cleavage worked out at 0.601.
The same measure for A34U G41A: 0.163.
In the case of C19A C21G, the self-cleavage amounted to 0.0812.
Regarding G47A G48A, the self-cleavage came out at 1.31.
For A32C A34G, the self-cleavage came out at 0.761.
On to C3A A33C, for which the self-cleavage was 0.147.
As for A2U A4C, the self-cleavage turned out to be 0.0829.
Regarding G39A G43U, the self-cleavage came out at 0.134.
For the variant A4G G47C, the self-cleavage was determined as 0.386.
Consider C15U G39C, for which the self-cleavage worked out at 0.146.
Take A11C G13U: the self-cleavage came out at 0.0589.
In the case of U18C G24A, the self-cleavage amounted to 0.0865.
As for A30U G47C, the self-cleavage stood at 0.669.
With A2U C26U, the self-cleavage stood at 0.069.
As to A1C, the self-cleavage turned out to be 0.175.
The result for G7A C21A reads 0.059.
With C20U G24C, the self-cleavage worked out at 0.0962.
Take A1C G29C: the self-cleavage worked out at 0.231.
Take A30G A32G: the self-cleavage was 1.02.
The same measure for C9U C25U: 0.404; for C3G G13U: 0.0808; for A4U U37G: 0.624.
A30G G38U: the self-cleavage is 0.771.
As for C3G A34G, the self-cleavage turned out to be 0.235.
On to A2C C3U, for which the self-cleavage stood at 0.0628.
Consider A10G A23C, for which the self-cleavage worked out at 0.714.
Take A4U G45C: the self-cleavage was determined as 0.0951.
Consider C27G A35G, for which the self-cleavage came out at 0.108.
Consider C27G A35U, for which the self-cleavage worked out at 0.0981.
C25A G45A: the self-cleavage came out at 0.0857.
Turning to C3A C20U, the self-cleavage came to 0.403.
On to A30U, for which the self-cleavage is 0.984.
Take C19G C25A: the self-cleavage stood at 0.0881.
On to C8G C15A, for which the self-cleavage was 0.0877.
For the variant A35C G45A, the self-cleavage was found to be 0.807.
On to C8G C19G, for which the self-cleavage is 0.0626.
For the variant U31C G42A, the self-cleavage came to 0.363.
On to C14U A23C, for which the self-cleavage stood at 0.51.
C21U G39U: the self-cleavage is 0.0656.
As to A40C C46A, the self-cleavage amounted to 0.202.
As to C15U G17A, the self-cleavage turned out to be 0.204.
U6A A33G: the self-cleavage is 0.881.
Consider G7U A35G, for which the self-cleavage is 0.0839.
Take C20G C26A: the self-cleavage amounted to 0.0588.
Regarding C19A C27U, the self-cleavage amounted to 0.0993.
Turning to C9A G48A, the self-cleavage is 0.357.
On to C5U G44C, for which the self-cleavage stood at 0.864.
As to C9G C26G, the self-cleavage was found to be 0.083.
The result for C15A G48A reads 0.528.
The same measure for G7C C8U: 0.0597.
In the case of A1U A32G, the self-cleavage was found to be 0.0499.
Regarding C15A G16C, the self-cleavage was found to be 0.264.
Turning to C8G G17U, the self-cleavage was 0.0532.
The result for A1C A11G reads 0.218; that for G29A A34U, 0.833.
The result for U6A G41C reads 0.182; that for U18C C21A, 0.0881; that for A35U A40C, 0.195.
For the variant C3A G48U, the self-cleavage amounted to 0.282.
The result for G28U A40G reads 0.155; that for C26A G44U, 0.456; that for C27U G47A, 0.56.
Take A32G G43U: the self-cleavage is 0.439.
In the case of G16U G29C, the self-cleavage came out at 0.544.
With C20U G36U, the self-cleavage turned out to be 0.0929.
